B1: ZNF449 (parent)
chain: TLHQRTHTEERPFKCNYCGKSFRQ
B2: CCDC6 (parent)
chain: ASVTIQARAEQEEEFISNTLFKKI

Variants of: B1
Experiment: protein stability index of a GFP-peptide fusion (GPS, HEK-293T) (PSI 1-6); higher = more stable
Conditions: c terminus: a fixed tail appended
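Also: lentivirally expressed fusions sorted by FACS into six bins by GFP to DsRed ratio, PSI derived from sequencing read proportions per bin multiplied by bin number.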

Protein stability index, by site and new letter:
E10: Q 2.56 | L 1.55 | A 1.95 | G 1.18 | C 1.74 | V 3.31 | S 2.1 | I 3.39
R23: F 2.21 | K 2.97 | I 3.2 | S 2.67 | P 2.58 | G 2.27 | T 2.7 | V 2.15
F13: D 2.92 | L 2.07 | K 2.28 | N 3.54 | I 3.01 | T 3.78 | A 2.14 | R 1.69 | Q 2.92 | M 2.18 | Y 2.22 | H 1.39
L2: M 2.58 | R 2.75 | G 3.08 | W 1.83 | Y 2.64 | K 2.74 | N 2.59
C15: K 3.55 | M 2.82 | G 3.43 | V 2.67 | T 3.29 | I 3.13 | P 3.1 | Q 3.37 | R 2.61 | N 3.41 | F 2.98
Q24: V 1.75 | W 2.12 | R 1.67 | F 2.56 | A 2.55 | L 2.36 | I 1.68 | S 3.49
C18: G 3.02 | T 3.4 | H 2.96 | P 2.91 | W 2.33 | M 2.72 | Q 2.26 | A 3.61 | R 3.38 | L 2.61 | E 3.78 | F 2.85 | N 3.68
R11: Y 2.11 | S 2.25 | I 2.08 | M 2.25 | P 2.12 | Q 2.95 | L 2.39 | H 2.53 | E 3.24
E9: N 1.88 | Q 2.72 | W 1.77 | Y 2.19 | S 2.55 | L 1.2 | A 2 | H 2.71 | D 2.15
K14: M 2.2 | C 2.71 | L 1.73 | F 2.85 | S 2.34 | W 2.1 | Q 2.22
T8: P 2.4 | D 2.62 | E 3.07 | H 1.18 | I 2.56 | G 2.04 | N 1.94 | A 2.29 | Y 2.54
H7: P 2.43 | R 2.48 | T 2.8 | L 2 | A 1.65 | I 2.37 | K 2.27 | C 2.66 | N 2.12 | S 2.4
T1: A 2.12 | Y 2.01 | D 2.46 | G 2.89 | N 2.87
K20: S 2.12 | G 1.61 | P 2.31 | C 1.86 | F 1.78 | D 2.83 | V 2.41 | E 1.79 | A 1.97
S21: Q 2.27 | V 2.29 | L 3.6 | C 2.02 | E 3.13 | G 1.82 | N 2.69
N16: V 2.86 | E 2.13 | K 2.76 | R 1.65 | W 2.04 | Y 2.61 | T 2.67 | I 2.27 | D 2.16 | C 1.73
P12: D 3.12 | H 2.32 | E 3.26 | S 2.52 | T 2.26 | W 2.89 | R 2.21 | M 2.45
Q4: H 1.73 | E 2.85 | N 2.75 | F 2.42 | W 2.24 | V 2.38 | A 2.08 | K 2.94 | L 1.9
Y17: F 2.22 | K 2.67 | C 2 | A 1.93 | I 2.14 | V 2.32 | D 2.09 | Q 3.16
R5: C 4.17 | W 2.15 | K 2.77 | P 2.12 | H 2.73 | S 2.45 | A 2.44 | E 3.05 | I 1.97 | N 1.65 | M 1.76
H3: N 2.62 | W 2.82 | T 2.42 | S 2.1 | Y 2.15 | L 1.85 | C 3.27 | P 2.66 | M 2.25 | F 2.47 | E 2.87 | R 2.82
F22: G 2.35 | L 1.82 | D 3.12 | C 3.22 | Q 2.88 | A 3.02 | K 3.37 | M 2.28 | P 3.03 | S 2.85
T6: C 3.06 | W 2 | P 1.76 | Q 2.54 | F 1.76 | Y 2.25 | H 1.55
G19: L 2.72 | F 2.38 | W 1.97 | Y 2.7 | I 3.3 | N 2.48 | E 2.68 | Q 2.96 | V 2.09 | T 2.4 | C 2.38 | K 2.79

Variants of: B2
Experiment: as above
Conditions: c terminus: a fixed tail appended

Protein stability index: each site, then its substitutions
K23: C 2.96 | E 3.89 | Q 3.17 | G 3.21 | I 2.52 | A 3.23 | R 3.28 | L 2.11 | F 2.01 | M 2.35 | S 3.04 | W 2.23 | H 3.08 | D 3.21 | V 2.73 | N 3.37 | P 3.19 | T 3.34 | Y 1.98
I24: C 4.52 | S 4.17 | Q 4.36 | R 4.03 | M 3.83 | P 4.25 | E 4.58 | G 4.48 | H 4.37 | K 4.8 | T 4.76 | F 3.66 | W 3.59 | Y 3.56 | D 4.85 | N 4.71 | L 4.23 | V 3.71 | A 4.14
T19: M 3.03 | E 3.81 | D 3.77 | R 3.84 | Y 2.96 | I 2.94 | C 3.25 | K 3.72 | G 4.04 | N 3.12 | H 3.36 | W 3.13 | L 2.82 | F 2.72 | Q 3.86 | V 3.21 | P 4 | A 3.49 | S 3.47
L20: Q 4.62 | E 4.51 | T 4.64 | H 4 | C 3.9 | Y 3.69 | V 3.82 | R 4.09 | S 4.68 | K 4.15 | M 4.44 | I 3.89 | W 2.91 | A 3.94 | D 4.76 | P 4.14 | N 4.42 | G 4.66 | F 3.46
K22: L 2.19 | C 2.17 | S 3.64 | H 3.5 | A 2.87 | M 1.74 | F 1.94 | G 3.49 | D 3.49 | V 1.91 | Q 3.7 | P 4.13 | Y 2.21 | W 2.1 | N 3.98 | R 2.92 | T 2.86 | E 3.74
N18: Y 2.07 | W 2.43
F21: V 4.39 | G 4.71 | M 4.46 | E 4.93 | K 4.7 | P 4.52 | D 4.87 | H 3.88 | A 4.66 | Q 5.01 | S 4.37 | L 4.78 | I 3.58 | W 3.39 | N 4.42 | T 4.49 | C 4.76 | R 4.54 | Y 3.72

Source: the supplement of paper PMC10567573
